Consider nine molecules from paper PMC3246441, “Structural Basis of Response Regulator Inhibition by a Bacterial Anti-Activator Protein” (PLoS Biology, 2011).

To fix the notation:
B1: RapF (natural protein, B. subtilis)
chain: GSMTGVISSSSIGEKINEWYMYIRRFSIPDAEYLRREIKQELDQMEEDQDLHLYYSLMEFRHNLMLEYLEPLEKMRIEEQPRLSDLLLEIDKKQARLTGLLEYYFNFFRGMYELDQREYLSAIKFFKKAESKLIFVKDRIEKAEFFFKMSESYYYMKQTYFSMDYARQAYEIYKEHEAYNIRLLQCHSLFATNFLDLKQYEDAISHFQKAYSMAEAEKQPQLMGRTLYNIGLCKNSQSQYEDAIPYFKRAIAVFEESNILPSLPQAYFLITQIHYKLGKIDKAHEYHSKGMAYSQKAGDVIYLSEFEFLKSLYLSGPDEEAIQGFFDFLESKMLYADLEDFAIDVAKYYHERKNFQKASAYFLKVEQVRQLIQGGVSLYEIEV
notes: two heterologous residues (Gly-Ser) derived from the thrombin cleavage signal, left after removal of the N-terminal GST; RapF, Bacillus subtilis, residues 1-381; The purification is told under 'Protein Purification for Crystallization'; Monomer by SE AUC; also called wild-type RapF; source: E. coli BL21, purified (glutathione resin, thrombin cleavage, anion exchange, gel filtration); not shown: …
B9: His-ComA (wild-type full-length ComA with His tag) (natural protein, B. subtilis, UniProt P14204 1-214, looked up)
chain: MKKILVIDDHPAVMEGTKTILETDSNLSVDCLSPEPSEQFIKQHDFSSYDLILMDLNLGGEVNGMELSKQILQENPHCKIIVYTGYEVEDYFEEAIRAGLHGAISKTESKEKITQYIYHVLNGEILVDFAYFKQLMTQQKTKPAPSSQKEQDVLTPRECLILQEVEKGFTNQEIADALHLSKRSIEYSLTSIFNKLNVGSRTEAVLIAKSDGVL
notes: ComA response regulator, Bacillus subtilis, full length; Purification of His-ComA is in Text S1; also called ComA2

For data set [1], the target named is B9. The data set can be described thus: SEC + other: total amino acid analysis; 40 µM RapF and 80 µM His-ComA in Buffer A on Superdex 200 HR10/30; fractions 12.0-13.5 ml, bands separated by SDS-PAGE and excised for total amino acid analysis (unpublished data). Particulars: both partners purified.
Data set [2] concerns the target B1. The experiment in a line: SEC; Superdex 200 HR10/30 in Buffer A; RapF 20 µM, His-ComA 40 µM, with PhrF 200 µM, incubated 30 min at 4°C; fractions by SDS-PAGE. Particulars: both partners purified. (In gel filtration, larger molecules generally elute earlier.)
Data set [3] concerns the target B1. The experiment in a line: crystal structure; RapF-ComAC co-crystals, vapor diffusion at 20°C, 1∶1 mixture of 100 µM RapF and ComAC; 6% PEG 8,000, 240 mM calcium acetate, 80 mM sodium cacodylate pH 6.5, 20% glycerol; 2.30 Å. Particulars: both partners purified.
Data set [4] deals with B1. The data set can be described thus: native gel or EMSA; 10 µM RapF and 10 µM ComA or His-ComA incubated in Buffer A (20 mM Tris pH 8.0, 300 mM NaCl, 5 mM MgCl2, 1 mM DTT, 5% glycerol) 30 min at 4°C; 12% Tris-glycine native PAGE at 4°C, Coomassie; disappearance of the ComA band as indicator. Particulars: both partners purified. (In general: In EMSA bound probe runs differently from free probe, usually more slowly.)

In data set [5] the target is B1. The data set can be described thus: native gel or EMSA; native PAGE binding studies with a broad concentration range of RapF and a fixed quantity of ComA (unpublished data), together with the qualitative gels; Kd is an estimate. Particulars: both partners purified.
For the next data set, the target named is T1, RapF-E71A (B. subtilis, UniProt P71002 2-381, E71A).
T1 construct: RapF, Bacillus subtilis, with one alanine substitution; Text S1 may tell
T1 sequence: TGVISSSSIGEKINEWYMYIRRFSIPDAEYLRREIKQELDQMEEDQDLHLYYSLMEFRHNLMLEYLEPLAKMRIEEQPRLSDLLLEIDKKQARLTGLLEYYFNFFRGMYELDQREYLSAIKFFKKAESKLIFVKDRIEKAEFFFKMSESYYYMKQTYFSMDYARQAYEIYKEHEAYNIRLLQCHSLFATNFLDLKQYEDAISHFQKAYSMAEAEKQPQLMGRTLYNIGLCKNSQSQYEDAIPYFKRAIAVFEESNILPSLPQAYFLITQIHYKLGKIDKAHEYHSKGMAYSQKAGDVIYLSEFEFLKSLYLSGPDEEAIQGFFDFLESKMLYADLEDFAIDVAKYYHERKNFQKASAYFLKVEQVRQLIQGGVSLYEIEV
The data set can be described thus: native gel or EMSA; 10 µM RapF and 10 µM ComA or His-ComA incubated in Buffer A (20 mM Tris pH 8.0, 300 mM NaCl, 5 mM MgCl2, 1 mM DTT, 5% glycerol) 30 min at 4°C; 12% Tris-glycine native PAGE at 4°C, Coomassie; disappearance of the ComA band as indicator. Particulars: both partners purified.

The next data set concerns the target T2, RapF-P27A (B. subtilis, UniProt P71002 2-381, P27A).
T2 construct: RapF, Bacillus subtilis, with one alanine substitution; Text S1 may tell
T2 sequence: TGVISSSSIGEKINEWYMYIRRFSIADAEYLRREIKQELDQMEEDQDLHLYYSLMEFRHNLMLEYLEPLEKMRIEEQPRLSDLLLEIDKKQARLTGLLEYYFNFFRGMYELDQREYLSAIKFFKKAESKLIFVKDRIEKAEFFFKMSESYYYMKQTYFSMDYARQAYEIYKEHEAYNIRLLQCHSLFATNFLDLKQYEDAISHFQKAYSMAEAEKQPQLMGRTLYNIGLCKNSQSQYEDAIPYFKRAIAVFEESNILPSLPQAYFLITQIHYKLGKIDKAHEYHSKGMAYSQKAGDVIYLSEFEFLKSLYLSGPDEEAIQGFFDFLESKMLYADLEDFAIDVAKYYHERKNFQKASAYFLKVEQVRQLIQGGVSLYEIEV
The description is as above. Particulars: both partners purified.

Data set [6] deals with the molecule itself. The experiment in a line: SEC; Superdex 200 HR10/30 in Buffer A; RapF 20 µM, His-ComA 40 µM, incubated 30 min at 4°C; fractions by SDS-PAGE; no PhrF.

B1: the “stoichiometry N” value in data set [1] was 1.

B2: PhrF peptide (peptide)
peptide: QRGMI
notes: mature PhrF signalling pentapeptide of Bacillus subtilis, cut from the pro-PhrF polypeptide; Free N- and C-termini as printed (NH2-QRGMI-COOH); also called synthetic PhrF peptide; NH2-QRGMI-COOH; source: synthetic peptide (LifeTein)
Take B2: the binding result with RapF [2] is given as “binds”.

B3: ComA DNA binding domain (ComAC) (domain or fragment, B. subtilis, UniProt P14204 146-214, looked up)
chain: SSQKEQDVLTPRECLILQEVEKGFTNQEIADALHLSKRSIEYSLTSIFNKLNVGSRTEAVLIAKSDGVL
notes: also called His-ComAC
On to B3, for which the binding result with RapF [3] is given as “binds”.

B4: ComA-T190A (His-ComA mutant) (natural protein, B. subtilis, UniProt P14204 1-214, looked up)
chain: MKKILVIDDHPAVMEGTKTILETDSNLSVDCLSPEPSEQFIKQHDFSSYDLILMDLNLGGEVNGMELSKQILQENPHCKIIVYTGYEVEDYFEEAIRAGLHGAISKTESKEKITQYIYHVLNGEILVDFAYFKQLMTQQKTKPAPSSQKEQDVLTPRECLILQEVEKGFTNQEIADALHLSKRSIEYSLASIFNKLNVGSRTEAVLIAKSDGVL
notes: ComA, Bacillus subtilis, full length, with one alanine substitution
Take B4: the binding result with RapF [4] is reported as “binds”.

B5: ComA (wild-type full-length ComA, no tag named) (natural protein, B. subtilis, UniProt P14204 1-214, looked up)
chain: MKKILVIDDHPAVMEGTKTILETDSNLSVDCLSPEPSEQFIKQHDFSSYDLILMDLNLGGEVNGMELSKQILQENPHCKIIVYTGYEVEDYFEEAIRAGLHGAISKTESKEKITQYIYHVLNGEILVDFAYFKQLMTQQKTKPAPSSQKEQDVLTPRECLILQEVEKGFTNQEIADALHLSKRSIEYSLTSIFNKLNVGSRTEAVLIAKSDGVL
notes: ComA response regulator, Bacillus subtilis, full length; Native PAGE used 'either 10 µM ComA or 10 µM His-ComA as indicated'; Purification of ComA is in Text S1; also called ComAFL
Regarding B5, in the data set with RapF [5], the Kd was 1 to 10 µM. In addition, the binding result in the data set with RapF-E71A and with RapF-P27A was “binds” throughout.

B6: ComA-R157A (His-ComA mutant) (natural protein, B. subtilis, UniProt P14204 1-214, looked up)
chain: MKKILVIDDHPAVMEGTKTILETDSNLSVDCLSPEPSEQFIKQHDFSSYDLILMDLNLGGEVNGMELSKQILQENPHCKIIVYTGYEVEDYFEEAIRAGLHGAISKTESKEKITQYIYHVLNGEILVDFAYFKQLMTQQKTKPAPSSQKEQDVLTPAECLILQEVEKGFTNQEIADALHLSKRSIEYSLTSIFNKLNVGSRTEAVLIAKSDGVL
notes: as for B4
In the case of B6, the binding result with RapF [4] is recorded as “binds”.

B7: ComA-N194A (His-ComA mutant) (natural protein, B. subtilis, UniProt P14204 1-214, looked up)
chain: MKKILVIDDHPAVMEGTKTILETDSNLSVDCLSPEPSEQFIKQHDFSSYDLILMDLNLGGEVNGMELSKQILQENPHCKIIVYTGYEVEDYFEEAIRAGLHGAISKTESKEKITQYIYHVLNGEILVDFAYFKQLMTQQKTKPAPSSQKEQDVLTPRECLILQEVEKGFTNQEIADALHLSKRSIEYSLTSIFAKLNVGSRTEAVLIAKSDGVL
notes: as for B4
With B7, the binding result with RapF [4] is reported as “binds”.

B8: ComA-Y187A (His-ComA mutant) (natural protein, B. subtilis, UniProt P14204 1-214, looked up)
chain: MKKILVIDDHPAVMEGTKTILETDSNLSVDCLSPEPSEQFIKQHDFSSYDLILMDLNLGGEVNGMELSKQILQENPHCKIIVYTGYEVEDYFEEAIRAGLHGAISKTESKEKITQYIYHVLNGEILVDFAYFKQLMTQQKTKPAPSSQKEQDVLTPRECLILQEVEKGFTNQEIADALHLSKRSIEASLTSIFNKLNVGSRTEAVLIAKSDGVL
notes: as for B4
With B8, the binding result with RapF [4] was “binds”.

Take B9: in data set [6], the “stoichiometry N” value came to 2.

A word on the stoichiometry N: it is the number of molecules, sites or subunits per partner or assembly. What is called Kd is the equilibrium constant for the complex coming apart.
